{
  "source": "paper PMC4899477",
  "target": "SV2A (SV2)",
  "assay": "SV-PD (synaptic vesicle pull-down) with blocking peptide, immunoblot densitometry",
  "settings": "pull down w/ C3WildF (m1), lower value = stronger block of SV capture by the peptide, parent: est. 39, read off a plot",
  "data": [
    {"substance": "… mimetic blocking peptide (CaV2.2 aa 2319-2328) H1A; Q2A", "values": [
      {"measurement": "other: SV2 capture by C3WildF in presence of peptide (% SH3)", "setting": "N = 8", "value": 58, "unit": "% SH3"}
    ]},
    {"substance": "… mimetic blocking peptide (CaV2.2 aa 2319-2328) H1G; Q2G; V6A; P7G; N8G; Y10A", "values": [
      {"measurement": "other: SV2 capture by C3WildF in presence of peptide (% SH3)", "setting": "N = 8", "value": 74, "unit": "% SH3"}
    ]},
    {"substance": "… mimetic blocking peptide (CaV2.2 aa 2319-2328) R4A; R5A", "values": [
      {"measurement": "other: SV2 capture by C3WildF in presence of peptide (% SH3)", "setting": "N = 3", "value": 83, "unit": "% SH3"}
    ]},
    {"substance": "… mimetic blocking peptide (CaV2.2 aa 2319-2328) R4G; R5G; V6A; P7G; N8G; Y10A", "values": [
      {"measurement": "other: SV2 capture by C3WildF in presence of peptide (% SH3)", "setting": "N = 8", "value": 110, "unit": "% SH3"}
    ]},
    {"substance": "… mimetic blocking peptide (CaV2.2 aa 2319-2328) V6A; P7A; N8A; G9A; Y10A", "values": [
      {"measurement": "other: SV2 capture by C3WildF in presence of peptide (% SH3)", "setting": "N = 5", "value": 44, "unit": "% SH3"}
    ]},
    {"substance": "… mimetic blocking peptide (CaV2.2 aa 2319-2328) V6A; P7G; N8G; Y10A", "values": [
      {"measurement": "other: SV2 capture by C3WildF in presence of peptide (% SH3)", "setting": "N = 7", "value": 41, "unit": "% SH3"}
    ]},
    {"substance": "… mimetic blocking peptide (CaV2.2 aa 2319-2328) V6A; Y10A", "values": [
      {"measurement": "other: SV2 capture by C3WildF in presence of peptide (% SH3)", "setting": "N = 8", "value": 29, "unit": "% SH3"}
    ]},
    {"substance": "… mimetic blocking peptide (CaV2.2 aa 2319-2328) V6G; P7A; N8A; G9A; Y10G", "values": [
      {"measurement": "other: SV2 capture by C3WildF in presence of peptide (% SH3)", "setting": "N = 6", "value": 28, "unit": "% SH3"}
    ]},
    {"substance": "… mimetic blocking peptide (CaV2.2 aa 2319-2328) V6G; Y10G", "values": [
      {"measurement": "other: SV2 capture by C3WildF in presence of peptide (% SH3)", "setting": "N = 6", "value": 44, "unit": "% SH3"}
    ]}
  ]
}
